Results from patent publication US20170355757A1 (Regeneron, published 2017).

T1: monkey C5-mmh (monkey, UniProt P01031 19-1676 (human entry), limits assumed)
T1 construct: Recombinant monkey C5 with a C-terminal myc-myc-hexahistidine tag
T1 chain: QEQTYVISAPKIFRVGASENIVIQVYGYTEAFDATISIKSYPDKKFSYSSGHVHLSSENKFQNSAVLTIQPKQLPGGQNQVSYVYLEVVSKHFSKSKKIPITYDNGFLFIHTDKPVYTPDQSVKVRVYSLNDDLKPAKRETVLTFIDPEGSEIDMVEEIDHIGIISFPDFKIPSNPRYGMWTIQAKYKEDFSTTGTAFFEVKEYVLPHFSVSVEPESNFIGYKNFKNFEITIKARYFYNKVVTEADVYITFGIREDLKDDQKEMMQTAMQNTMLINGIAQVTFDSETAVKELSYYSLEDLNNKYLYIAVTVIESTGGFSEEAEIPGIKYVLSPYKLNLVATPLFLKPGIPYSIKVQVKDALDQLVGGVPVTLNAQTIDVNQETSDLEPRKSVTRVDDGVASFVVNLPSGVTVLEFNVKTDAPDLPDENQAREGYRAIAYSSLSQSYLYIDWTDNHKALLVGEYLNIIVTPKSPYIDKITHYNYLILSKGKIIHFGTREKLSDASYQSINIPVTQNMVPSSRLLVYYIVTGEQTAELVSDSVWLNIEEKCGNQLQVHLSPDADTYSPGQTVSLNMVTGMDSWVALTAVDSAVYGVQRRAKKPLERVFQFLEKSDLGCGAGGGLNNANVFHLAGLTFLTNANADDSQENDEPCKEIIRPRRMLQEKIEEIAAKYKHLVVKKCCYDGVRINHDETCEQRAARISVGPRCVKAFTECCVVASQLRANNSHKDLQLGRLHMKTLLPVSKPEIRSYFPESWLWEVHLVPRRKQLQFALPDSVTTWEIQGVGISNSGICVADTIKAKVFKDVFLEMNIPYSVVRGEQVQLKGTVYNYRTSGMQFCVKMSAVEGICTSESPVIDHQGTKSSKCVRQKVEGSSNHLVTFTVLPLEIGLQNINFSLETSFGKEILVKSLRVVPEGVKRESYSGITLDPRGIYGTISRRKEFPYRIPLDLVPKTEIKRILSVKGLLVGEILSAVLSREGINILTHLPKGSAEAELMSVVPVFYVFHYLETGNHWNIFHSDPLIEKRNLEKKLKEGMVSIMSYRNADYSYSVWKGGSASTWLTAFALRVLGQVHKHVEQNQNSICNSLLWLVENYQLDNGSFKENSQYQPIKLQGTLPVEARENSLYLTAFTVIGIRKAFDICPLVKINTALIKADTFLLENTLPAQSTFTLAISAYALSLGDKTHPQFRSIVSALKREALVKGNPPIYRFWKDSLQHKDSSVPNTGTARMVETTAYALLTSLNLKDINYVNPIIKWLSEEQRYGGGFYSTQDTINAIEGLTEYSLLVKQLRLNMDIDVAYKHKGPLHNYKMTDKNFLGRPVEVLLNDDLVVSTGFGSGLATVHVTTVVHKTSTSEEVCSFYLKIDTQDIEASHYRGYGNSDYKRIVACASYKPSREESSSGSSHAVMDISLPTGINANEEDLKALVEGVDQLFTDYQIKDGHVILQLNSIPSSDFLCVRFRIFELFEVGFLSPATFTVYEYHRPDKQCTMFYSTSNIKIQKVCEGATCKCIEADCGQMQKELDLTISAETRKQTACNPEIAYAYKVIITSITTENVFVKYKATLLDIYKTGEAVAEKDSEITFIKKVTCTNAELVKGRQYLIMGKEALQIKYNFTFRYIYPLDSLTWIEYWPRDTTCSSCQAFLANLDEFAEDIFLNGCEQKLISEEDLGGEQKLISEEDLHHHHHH

B1: H4H12175P (antibody, human IgG4, V domains shown)
VH: EVQLVESGGGVVQPGGSLRLSCAASGFTFNDYAMHWVRQAPGKGLEWVSLISGDGGNTYYADSVKGRLTISRDNSKNSLYLQMNSLRTEDTALYYCAKDKGWNFGYFDLWGRGTLVTVSS
VL: DIQMTQSPSSLSTSVGDRVTITCRASQNIDTYLNWYQQKPGKAPKLLIYDASSLQSGVPSRFSGSGSGTDFTLTITSLQPEDFATYYCQQNDNILHPLTFGGGTKVEIK
notes: Human IgG4 Fc with S108P hinge mutation (H4H)
B2: H4H12167P (antibody, human IgG4, V domains shown)
VH: QVQLVESGGGLVKPGGSLRLSCAASGFTFSDSYMSWIRQAPGKGLEWISYIGSSGNTFYYADSVKGRFTISRDNANNLLYLQMTSLRAEDTAVYYCAREEGDFWSAVDSWGQGTLVTVSS
VL: DIQLTQSPSFLSASVGDRVTITCWASQGISSYLAWYQQKPGKAPKLLIHTASTLQSGVPSRFSGSGSGTEFTLTISNLQPEDFATYYCQQLNSYPFTFGPGTKVDIK
notes: as for B1
B3: H4H12163P (antibody, human IgG4, V domains shown)
VH: EVQLVESGGDLVQPGGSLRLSCAASGFTFSSYAMNWVRQGPGKGLEWVSAISGRGDSTYYADSVKGRLTISRDNSKNTLYLQMNSLRAEDTAVYYCVKEGEQLVYWYFDLWGRGTLVTVSS
VL: DIQMTQSPSSLSASVGDRVTITCRASQTISNFLHWYQQKPGKAPKLLIYAASSLQSGVPSRFSGSGSGTDFTLTISSLQPEDFSTYFCQQSYTTPLTFGGGTKVEIK
notes: as for B1
B4: H4H12159P (antibody, human IgG4, V domains shown)
VH: QVQLVESGGGVVQPGRSLRLSCGASGFTFSTYGMHWVRQAPGKGLEWVAVIWDDGNNKYYADSVKGRFTISRDNSKNTLYLQMNSLRAEDTAVYYCARDSEVAPVGDYWGQGTLVTVSS
VL: DIQMTQSPSTLSASVGDRVTIICRASQSINRWLAWYQQKPGKAPKLLIYKASSLESGVPSRFSGSGSGTEFTLTISSLQPDDFAAYYCQQYNDYSYTFGQGTKLEIK
notes: as for B1

Assays:
monkey C5-mmh = target: T1, monkey C5-mmh; experiment: SPR, mAb captured via anti-hFc, 37C
How it was run: (§1)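 Anti-C5 mAbs were held by immobilised mouse anti-human Fc, and untagged or mmh-tagged C5 flowed 3 min, then buffer 8 min, in HBST pH 7.4.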

human C5 R885H-mmh [1] = target: T2, human C5 R885H-mmh (human, UniProt P01031 19-1676); experiment: SPR, mAb captured via anti-hFc, 37C
T2 construct: also called human C5 variant R885H
How it was run: as §1

human C5 R885C-mmh [2] = target: T3, human C5 R885C-mmh (human, UniProt P01031 19-1676); experiment: SPR, mAb captured via anti-hFc, 37C
T3 construct: also called human C5 variant R885C
How it was run: as §1

human C5 R885H-mmh [3] = target: T2, human C5 R885H-mmh; experiment: SPR, mAb captured via anti-hFc, 25C
How it was run: as §1

human C5 R885C-mmh [4] = target: T3, human C5 R885C-mmh; experiment: SPR, mAb captured via anti-hFc, 25C
How it was run: as §1

human C5 = target: T4, human C5 (human, UniProt P01031 19-1676); experiment: SPR, mAb captured via anti-hFc, dissociation at pH7.4 vs pH6.0, 25C
T4 construct: Bought human C5 (EMD #204888, said elsewhere to be purified from plasma); also called hC5; complement component 5
Procedure: Effect of pH on the rate of dissociation of recombinant human C5 bound to purified anti-C5 monoclonal antibodies was determined using a real-time surface plasmon resonance biosensor using a Biacore T200 instrument. The Biacore sensor surface was first derivatized by amine coupling with a monoclonal mouse anti-human Fc antibody (GE, # BR-1008-39) to capture anti-C5 monoclonal antibodies expressed with human IgG4 Fc. All Biacore binding studies were performed using two running buffers PBS-T, pH7.4 (0.01M Na₂HPO₄/NaH₂PO₄, 0.15M NaCl, 0.05% v/v Tween-20, adjusted to pH7.4) and PBS-T, pH6.0 (0.01M Na₂HPO₄/NaH₂PO₄, 0.15M NaCl, 0.05% v/v Tween-20, adjusted to pH6.0). […] Binding dissociative half-lives (t %) were calculated from kd as: […]

Binder	100 nM monkey C5-mmh Bound (RU) (monkey C5-mmh)	Kd (monkey C5-mmh) [nM]	koff (monkey C5-mmh) [s⁻¹]	kon (monkey C5-mmh) [M⁻¹ s⁻¹]	t1/2 (monkey C5-mmh) [min]	100 nM Human C5 R885H-mmh Bound (RU) (human C5 R885H-mmh [1])	Kd (human C5 R885H-mmh [1]) [nM]	koff (human C5 R885H-mmh [1]) [s⁻¹]	kon (human C5 R885H-mmh [1]) [M⁻¹ s⁻¹]	t1/2 (human C5 R885H-mmh [1]) [min]	100 nM Human C5 R885C-mmh Bound (RU) (human C5 R885C-mmh [2])	Kd (human C5 R885C-mmh [2]) [nM]	koff (human C5 R885C-mmh [2]) [s⁻¹]	kon (human C5 R885C-mmh [2]) [M⁻¹ s⁻¹]	t1/2 (human C5 R885C-mmh [2]) [min]	100 nM Human C5 R885H-mmh Bound (RU) (human C5 R885H-mmh [3])	Kd (human C5 R885H-mmh [3]) [nM]	koff (human C5 R885H-mmh [3]) [s⁻¹]	kon (human C5 R885H-mmh [3]) [M⁻¹ s⁻¹]	t1/2 (human C5 R885H-mmh [3]) [min]	other results
B1	74	15.6	0.00276	177000	4	30	69.4	0.0095	137000	1	4	159	0.0179	112000	1	207	10.9	0.00198	181000	6	100 nM Human C5 R885C-mmh Bound (RU) (human C5 R885C-mmh [4]): 128 RU; Kd (human C5 R885C-mmh [4]): 190 nM; koff (human C5 R885C-mmh [4]): 0.0155 s⁻¹; kon (human C5 R885C-mmh [4]): 81800 M⁻¹ s⁻¹; t1/2 (human C5 R885C-mmh [4]): 1 min; t1/2 Ratio pH7.4/pH6.0 (human C5): 0.9
B2	146	0.539	0.000289	537000	40	65	2.91	0.00257	881000	5	64	3.64	0.00249	684000	5	187	0.433	0.000298	689000	39	100 nM Human C5 R885C-mmh Bound (RU) (human C5 R885C-mmh [4]): 163 RU; Kd (human C5 R885C-mmh [4]): 0.413 nM; koff (human C5 R885C-mmh [4]): 0.000294 s⁻¹; kon (human C5 R885C-mmh [4]): 711000 M⁻¹ s⁻¹; t1/2 (human C5 R885C-mmh [4]): 39 min; t1/2 Ratio pH7.4/pH6.0 (human C5): 0.6
B3	129	3.2	0.00125	390000	9	85	4	0.0029	724000	4	83	4.97	0.00281	566000	4	214	0.646	0.000434	672000	27	100 nM Human C5 R885C-mmh Bound (RU) (human C5 R885C-mmh [4]): 211 RU; Kd (human C5 R885C-mmh [4]): 0.858 nM; koff (human C5 R885C-mmh [4]): 0.000432 s⁻¹; kon (human C5 R885C-mmh [4]): 504000 M⁻¹ s⁻¹; t1/2 (human C5 R885C-mmh [4]): 27 min; t1/2 Ratio pH7.4/pH6.0 (human C5): 1.2
B4	137	0.133	5.5e-05	412000	210	82	1.49	0.000948	638000	12	68	1.74	0.000975	561000	12	177	0.25	0.000176	706000	66	100 nM Human C5 R885C-mmh Bound (RU) (human C5 R885C-mmh [4]): 168 RU; Kd (human C5 R885C-mmh [4]): 0.289 nM; koff (human C5 R885C-mmh [4]): 0.000169 s⁻¹; kon (human C5 R885C-mmh [4]): 586000 M⁻¹ s⁻¹; t1/2 (human C5 R885C-mmh [4]): 68 min; t1/2 Ratio pH7.4/pH6.0 (human C5): ≤ 0.3
